{
  "source": "paper PMC4821647",
  "key": {"[1]": {"target": "T1, Arid5a R128A (Mus musculus, UniProt Q3U108 1-590, R128A)", "T1 sequence": "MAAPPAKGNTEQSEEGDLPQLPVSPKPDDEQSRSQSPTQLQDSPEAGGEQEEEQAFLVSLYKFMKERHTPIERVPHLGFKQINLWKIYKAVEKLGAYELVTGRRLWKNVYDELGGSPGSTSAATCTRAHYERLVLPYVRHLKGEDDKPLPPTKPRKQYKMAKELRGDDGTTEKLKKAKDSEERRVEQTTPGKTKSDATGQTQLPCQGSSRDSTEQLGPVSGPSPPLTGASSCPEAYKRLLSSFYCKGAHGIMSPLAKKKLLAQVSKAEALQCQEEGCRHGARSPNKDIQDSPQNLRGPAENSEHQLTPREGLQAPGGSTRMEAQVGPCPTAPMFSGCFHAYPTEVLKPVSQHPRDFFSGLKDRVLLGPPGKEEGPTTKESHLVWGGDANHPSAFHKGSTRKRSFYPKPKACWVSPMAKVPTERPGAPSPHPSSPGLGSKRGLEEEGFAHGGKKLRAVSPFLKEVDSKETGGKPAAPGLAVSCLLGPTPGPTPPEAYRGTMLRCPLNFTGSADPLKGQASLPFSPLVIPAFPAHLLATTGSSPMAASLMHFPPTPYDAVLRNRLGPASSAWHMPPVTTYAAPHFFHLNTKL", "assay": "EMSA"}, "[2]": {"target": "T2, Arid5a (Mus musculus, UniProt Q3U108 1-590)", "T2 sequence": "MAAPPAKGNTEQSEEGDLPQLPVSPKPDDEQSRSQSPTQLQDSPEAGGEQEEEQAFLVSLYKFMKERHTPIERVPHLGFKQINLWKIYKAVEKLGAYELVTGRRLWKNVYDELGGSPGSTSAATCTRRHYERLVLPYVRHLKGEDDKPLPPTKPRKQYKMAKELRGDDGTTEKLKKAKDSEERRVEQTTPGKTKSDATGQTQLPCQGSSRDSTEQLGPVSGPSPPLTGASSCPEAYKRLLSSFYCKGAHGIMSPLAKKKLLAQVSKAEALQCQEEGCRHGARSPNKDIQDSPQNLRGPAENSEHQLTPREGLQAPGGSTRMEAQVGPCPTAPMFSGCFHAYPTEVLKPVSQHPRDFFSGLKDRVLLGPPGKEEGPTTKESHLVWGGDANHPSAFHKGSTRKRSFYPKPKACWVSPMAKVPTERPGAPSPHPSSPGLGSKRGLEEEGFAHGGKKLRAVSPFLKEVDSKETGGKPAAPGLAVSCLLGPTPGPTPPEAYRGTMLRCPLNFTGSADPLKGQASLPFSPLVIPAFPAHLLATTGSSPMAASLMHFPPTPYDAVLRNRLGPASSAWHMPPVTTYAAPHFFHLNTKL", "assay": "EMSA"}},
  "data": [
    {"binder": "UGCAGUGGCUUGUGUUCUGGCCACUGCA (structured_RNA)", "note": "[STAT3 3'UTR (1738-1765) stem-loop]", "values": [
      {"measurement": "binding result", "setting": "[1]", "value": "no binding"},
      {"measurement": "binding result", "setting": "[2]", "value": "binds"}
    ]},
    {"binder": "UGCACACCCUUGUGUUCUGGCCACUGCA (structured_RNA)", "note": "[mutant stem-loop STAT3 3'UTR (1738-1765)]", "values": [
      {"measurement": "binding result", "setting": "[2]", "value": "no binding"}
    ]}
  ]
}
